Data taken from article PMC12488921.
Values joined by “and” are separate entries in the source; they are usually repeats but may differ in a detail not shown here. Equal values may be shown once.

Legend:
Human DNAJB6b (human) [1] = molecular target: Human DNAJB6b (human) (UniProt O75190); experiment: mass photometry; dissociation kinetics: 34 μM non-labeled JB6 diluted to 50 nM at time zero, 22 and 37 °C; total micelle mass (N > 2) in 60 s of data collection against time
Human DNAJB6b (human) [2] = molecular target: Human DNAJB6b (human) (UniProt O75190); experiment: mass photometry; JB6 equilibrated at different concentrations (1 to 100 μM), 20 mM NaP, 0.2 mM EDTA, pH 8.0, room temperature; samples above 200 nM diluted to 200 nM less than a minute before a 60 s measurement; also 5 μM JB6 with 0-1.25 M NaCl

Human DNAJB6b, O75190-2 1-241 (natural protein; other documents disagree on this pair), sequence (O75190 other isoform, or with tags, fused parts or gaps): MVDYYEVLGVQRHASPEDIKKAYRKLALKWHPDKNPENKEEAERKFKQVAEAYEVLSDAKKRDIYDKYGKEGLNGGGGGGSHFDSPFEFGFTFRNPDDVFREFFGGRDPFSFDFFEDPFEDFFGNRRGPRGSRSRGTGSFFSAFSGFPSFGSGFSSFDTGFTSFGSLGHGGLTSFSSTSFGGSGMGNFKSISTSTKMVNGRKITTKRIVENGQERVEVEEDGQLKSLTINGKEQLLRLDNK

time scale of micelle dissociation at 37 °C (Human DNAJB6b (human) [1]): 20 min | stoichiometry N (Human DNAJB6b (human) [2]): 20 and 40
Substance: Human DNAJB6b, O75190-2 1-241 (natural protein; other documents disagree on this pair)
